Article PMC8615399, “Novel Structures of Type 1 Glyceraldehyde-3-phosphate Dehydrogenase from Escherichia coli Provide New Insights into the Mechanism of Generation of 1,3-Bisphosphoglyceric Acid” (Biomolecules, 2021)

B1: glyceraldehyde-3-phosphate dehydrogenase type 1 from Escherichia coli, wild type (enzyme, UniProt P0A9B2 1-331, looked up)
chain: MTIKVGINGFGRIGRIVFRAAQKRSDIEIVAINDLLDADYMAYMLKYDSTHGRFDGTVEVKDGHLIVNGKKIRVTAERDPANLKWDEVGVDVVAEATGLFLTDETARKHITAGAKKVVMTGPSKDNTPMFVKGANFDKYAGQDIVSNASCTTNCLAPLAKVINDNFGIIEGLMTTVHATTATQKTVDGPSHKDWRGGRGASQNIIPSSTGAAKAVGKVLPELNGKLTGMAFRVPTPNVSVVDLTVRLEKAATYEQIKAAVKAAAEGEMKGVLGYTEDDVVSTDFNGEVCTSVFDAKAGIALNDNFVKLVSWYDNETGYSNKVLDLIAHISK
notes: glyceraldehyde-3-phosphate dehydrogenase type 1 (EcGAPDH1), Escherichia coli; EC 1.2.1.12; also called EcGAPDH1; WT; source: purified as previously described [24]
B2: EcGAPDH1 double mutant C150A+H177A (enzyme, Escherichia coli, UniProt P0A9B2 1-331, looked up)
chain: MTIKVGINGFGRIGRIVFRAAQKRSDIEIVAINDLLDADYMAYMLKYDSTHGRFDGTVEVKDGHLIVNGKKIRVTAERDPANLKWDEVGVDVVAEATGLFLTDETARKHITAGAKKVVMTGPSKDNTPMFVKGANFDKYAGQDIVSNASATTNCLAPLAKVINDNFGIIEGLMTTVAATTATQKTVDGPSHKDWRGGRGASQNIIPSSTGAAKAVGKVLPELNGKLTGMAFRVPTPNVSVVDLTVRLEKAATYEQIKAAVKAAAEGEMKGVLGYTEDDVVSTDFNGEVCTSVFDAKAGIALNDNFVKLVSWYDNETGYSNKVLDLIAHISK
notes: glyceraldehyde-3-phosphate dehydrogenase type 1 (EcGAPDH1), Escherichia coli; source: purified (Ni-NTA, size-exclusion chromatography)
B3: EcGAPDH1 mutant C150S (enzyme, Escherichia coli, UniProt P0A9B2 1-331, looked up)
chain: MTIKVGINGFGRIGRIVFRAAQKRSDIEIVAINDLLDADYMAYMLKYDSTHGRFDGTVEVKDGHLIVNGKKIRVTAERDPANLKWDEVGVDVVAEATGLFLTDETARKHITAGAKKVVMTGPSKDNTPMFVKGANFDKYAGQDIVSNASSTTNCLAPLAKVINDNFGIIEGLMTTVHATTATQKTVDGPSHKDWRGGRGASQNIIPSSTGAAKAVGKVLPELNGKLTGMAFRVPTPNVSVVDLTVRLEKAATYEQIKAAVKAAAEGEMKGVLGYTEDDVVSTDFNGEVCTSVFDAKAGIALNDNFVKLVSWYDNETGYSNKVLDLIAHISK
notes: glyceraldehyde-3-phosphate dehydrogenase type 1 (EcGAPDH1), Escherichia coli; Made from the wild-type vector by overlap extension PCR; source: purified (Ni-NTA, size-exclusion chromatography)
B4: EcGAPDH1 mutant H177A (enzyme, Escherichia coli, UniProt P0A9B2 1-331, looked up)
chain: MTIKVGINGFGRIGRIVFRAAQKRSDIEIVAINDLLDADYMAYMLKYDSTHGRFDGTVEVKDGHLIVNGKKIRVTAERDPANLKWDEVGVDVVAEATGLFLTDETARKHITAGAKKVVMTGPSKDNTPMFVKGANFDKYAGQDIVSNASCTTNCLAPLAKVINDNFGIIEGLMTTVAATTATQKTVDGPSHKDWRGGRGASQNIIPSSTGAAKAVGKVLPELNGKLTGMAFRVPTPNVSVVDLTVRLEKAATYEQIKAAVKAAAEGEMKGVLGYTEDDVVSTDFNGEVCTSVFDAKAGIALNDNFVKLVSWYDNETGYSNKVLDLIAHISK
notes: as for B3
B5: EcGAPDH1 mutant C150A (enzyme, Escherichia coli, UniProt P0A9B2 1-331, looked up)
chain: MTIKVGINGFGRIGRIVFRAAQKRSDIEIVAINDLLDADYMAYMLKYDSTHGRFDGTVEVKDGHLIVNGKKIRVTAERDPANLKWDEVGVDVVAEATGLFLTDETARKHITAGAKKVVMTGPSKDNTPMFVKGANFDKYAGQDIVSNASATTNCLAPLAKVINDNFGIIEGLMTTVHATTATQKTVDGPSHKDWRGGRGASQNIIPSSTGAAKAVGKVLPELNGKLTGMAFRVPTPNVSVVDLTVRLEKAATYEQIKAAVKAAAEGEMKGVLGYTEDDVVSTDFNGEVCTSVFDAKAGIALNDNFVKLVSWYDNETGYSNKVLDLIAHISK
notes: as for B3

Biological target: the molecule itself
Test: crystal structure; hanging-drop vapor diffusion at 20 °C, protein 30 mg/mL; space group P4(1)2(1)2; complexes with NAD and phosphate, G3P or BPG; four subunits (O, P, Q, R) in each structure

Stoichiometry N, 4:
B1
B2
B3
B4
B5
